Target: the molecule itself
Assay: SDS-PAGE

B1: BbZIP, zinc transporter from Bordetella bronchiseptica, full-length, N-terminal His6 (natural protein, UniProt A0A0H3LM39 1-309, looked up)
chain: MNQPSSLAADLRGAWHAQAQSHPLITLGLAASAAGVVLLLVAGIVNALTGENRVHVGYAVLGGAAGFAATALGALMALGLRAISARTQDAMLGFAAGMMLAASAFSLILPGLDAAGTIVGPGPAAAAVVALGLGLGVLLMLGLDYFTPHEHERTGHQGPEAARVNRVWLFVLTIILHNLPEGMAIGVSFATGDLRIGLPLTSAIAIQDVPEGLAVALALRAVGLPIGRAVLVAVASGLMEPLGALVGVGISSGFALAYPISMGLAAGAMIFVVSHEVIPETHRNGHETTATVGLMAGFALMMFLDTALG
  stoichiometry N: 2
